Here are results for one molecule from paper PMC9976904, “eIF4A1-dependent mRNAs employ purine-rich 5’UTR sequences to activate localised eIF4A1-unwinding through eIF4A1-multimerisation to facilitate translation”.

This data set has as its target eIF4A1 DQAD (human, UniProt P60842 1-406, E183Q). As to the kind of experiment: EMSA; silvestrol; affinity similar to wt; 20 mM HEPES/KOH pH 7.5, 100 mM KCl, 1 mM TCEP, 1% DMSO, 2 mM AMPPNP/MgCl2, 25 C, 60 min; EMSA gels 6-7% acrylamide-TB, 0.5x TB. The settings on record: protein: recombinant; tags: N-terminal 6xHis-SUMO, cleaved; label: FAM or 5' Dy780.

Sequence of eIF4A1 DQAD (P60842 whole entry E183Q): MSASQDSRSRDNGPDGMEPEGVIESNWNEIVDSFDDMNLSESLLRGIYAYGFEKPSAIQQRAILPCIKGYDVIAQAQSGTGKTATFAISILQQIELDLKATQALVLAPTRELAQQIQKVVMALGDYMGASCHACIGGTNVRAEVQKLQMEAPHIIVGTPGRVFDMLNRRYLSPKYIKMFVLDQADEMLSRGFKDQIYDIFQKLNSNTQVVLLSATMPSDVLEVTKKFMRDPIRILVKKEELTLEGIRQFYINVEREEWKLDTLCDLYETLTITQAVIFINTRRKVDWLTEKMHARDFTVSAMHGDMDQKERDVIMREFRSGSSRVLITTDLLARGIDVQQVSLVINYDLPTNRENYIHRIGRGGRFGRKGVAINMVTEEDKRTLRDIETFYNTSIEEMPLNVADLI

B1: AG-RNA (20 nt) (ssRNA)
RNA: AGAGAGAGAGAGAGAGAGAG
For B1, the binding result was “binds”.
